Measurements as given in paper PMC11633486, “The Intestinal Transporter SLC30A1 Plays a Critical Role in Regulating Systemic Zinc Homeostasis” (Advanced Science, 2024).

Target: the molecule itself
Assay: cryo-EM structure; purified wild-type SLC30A1 at 5 mg/mL in 25 mM Tris pH 8.0, 150 mM NaCl, 0.002% LMNG, 0.0004% CHS; C2 symmetry imposed; homodimer

B1: full-length human SLC30A1 protein (natural protein, UniProt Q9Y6M5 1-507, looked up)
chain: MGCWGRNRGRLLCMLALTFMFMVLEVVVSRVTSSLAMLSDSFHMLSDVLALVVALVAERFARRTHATQKNTFGWIRAEVMGALVNAIFLTGLCFAILLEAIERFIEPHEMQQPLVVLGVGVAGLLVNVLGLCLFHHHSGFSQDSGHGHSHGGHGHGHGLPKGPRVKSTRPGSSDINVAPGEQGPDQEETNTLVANTSNSNGLKLDPADPENPRSGDTVEVQVNGNLVREPDHMELEEDRAGQLNMRGVFLHVLGDALGSVIVVVNALVFYFSWKGCSEGDFCVNPCFPDPCKAFVEIINSTHASVYEAGPCWVLYLDPTLCVVMVCILLYTTYPLLKESALILLQTVPKQIDIRNLIKELRNVEGVEEVHELHVWQLAGSRIIATAHIKCEDPTSYMEVAKTIKDVFHNHGIHATTIQPEFASVGSKSSVVPCELACRTQCALKQCCGTLPQAPSGKDAEKTPAVSISCLELSNNLEKKPRRTKAENIPAVVIEIKNMPNKQPESSL
notes: SLC30A1 (zinc transporter 1), human, full-length cDNA with codon optimization; Homodimer in the cryo-EM structure; the C291 residues of the two protomers form a disulfide bond; also called WT SLC30A1; wild-type SLC30A1; source: HEK293F, transfected (pEZT vector), purified (Strep-Tactin beads, Superose 6 gel filtration) in LMNG/CHS
stoichiometry N: 2
